From patent US20230416378A1

Biological target: recombinant human VEGF-A (human) (UniProt P15692)
Test: cell-based or functional assay

Chain of recombinant human VEGF-A (human) (P15692 other isoform, or with tags, fused parts or gaps limits assumed): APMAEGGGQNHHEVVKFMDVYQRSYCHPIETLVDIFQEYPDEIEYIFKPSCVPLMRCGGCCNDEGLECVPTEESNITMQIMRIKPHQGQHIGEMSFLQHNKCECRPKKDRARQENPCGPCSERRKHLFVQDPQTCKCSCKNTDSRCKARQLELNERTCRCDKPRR

VEGF induced cell integrity loss IC50: 0.33 nM
Substance: Eylea (aflibercept), VEGF trap (Fc fusion)
